Measured values from US20220177587A1, “METHODS AND USES OF VARIANT CD80 FUSION PROTEINS AND RELATED CONSTRUCTS” (Alpine Immune Sciences, Inc., priority 2018, published 2022).

How the values were obtained:
huCTLA4 = huCTLA4 (Homo sapiens, UniProt P16410); assay: Flow binding to HEK293 cells transfected with CTLA4; parameters: Full-length mammalian surface expression constructs for each of human CTLA-4, PD-L1, and CD28; host or cells: HEK293 cells, Expi293F transient transfection system; settings: Table E1
Procedure: Full-length mammalian surface expression constructs for each of human CTLA-4, PD-L1, and CD28, were designed in pcDNA3.1 expression vector (Life Technologies) and sourced from Genscript, USA. Binding studies were carried out on transfected HEK293 cells generated to express the full-length mammalian surface ligands using the using the Expi293F transient transfection system (Life Technologies, USA). As a control, binding to mock (non-transfected) cells also was assessed. […] For each CTLA-4, PD-L1, CD-28 or mock 30 mL transfection, 75 million Expi293F cells were incubated with 30 μg expression construct DNA and 1.5 mL diluted ExpiFectamine 293 reagent for 48 hours, at which point cells were harvested for staining.
For staining and analysis by flow cytometry, 100,000 cells of appropriate transient transfection or negative control (mock) were plated in 96-well round bottom plates. Cells were spun down and resuspended in staining buffer (PBS (phosphate buffered saline), 1% BSA (bovine serum albumin), and 0.1% sodium azide) for 20 minutes to block non-specific binding. […] Secondary antibody was washed out twice, cells were fixed in 4% formaldehyde/PBS, and samples were analyzed on Intellicyt flow cytometer (Intellicyt Corp, USA). Mean Fluorescence Intensity (MFI) was calculated for each transfectant and mock transfected HEK293 with FlowJo Version 10 software (FlowJo LLC, USA).

CD28 [1] = biological target: T1, CD28 (Homo sapiens, UniProt P10747); assay: CD28 costimulation via Fc receptor or PD-L1 dependent cross-linking (Jurkat/IL2 + K562/OKT3 +/- PD-L1); type: cell-based; parameters: host or cells: Jurkat cells expressing an IL-2-luciferase reporter; settings: luciferase signal
Procedure: In a further experiment, CD28 costimulation was assessed for variant CD80-IgV-Fc fusion proteins, where the Fc was an IgG1 Fc (e.g. SEQ ID NO:1517) capable of mediating effector activity via binding to Fc receptors (FcR). The experiment was carried out as described in part A above, except CD32-expressing K562 cells stably transduced with OKT3 (K562/OKT3) or OKT3 and PD-L1 (K562/OKT3/PD-L1) were used instead of the CHO/OKT3 and CHO/OKT3/PD-L1 cells, and the results are depicted in Table E9.

CD28 [2] = biological target: T1, CD28; assay: Flow binding to HEK293 cells transfected with CD28; parameters: Full-length mammalian surface expression constructs for each of human CTLA-4, PD-L1, and CD28; host or cells: HEK293 cells, Expi293F transient transfection system; settings: Table E1
Procedure: This Example describes Fc-fusion binding studies of purified proteins from the above Examples to cell-expressed CTLA-4, PD-L1, and CD28 counter structures to assess the specificity and affinity of CD80 domain variant immunomodulatory proteins. Full-length mammalian surface expression constructs for each of human CTLA-4, PD-L1, and CD28, were designed in pcDNA3.1 expression vector (Life Technologies) and sourced from Genscript, USA. Binding studies were carried out on transfected HEK293 cells generated to express the full-length mammalian surface ligands using the using the Expi293F transient transfection system (Life Technologies, USA). As a control, binding to mock (non-transfected) cells also was assessed. […]
For staining and analysis by flow cytometry, 100,000 cells of appropriate transient transfection or negative control (mock) were plated in 96-well round bottom plates. […] As controls, the binding activities of wild-type CD80-ECD-Fc (R&D Systems), wild-type CD80-ECD-Fc (inert), wild-type IgV-Fc (inert) and/or human IgG (Sigma) were also assessed. […] Secondary antibody was washed out twice, cells were fixed in 4% formaldehyde/PBS, and samples were analyzed on Intellicyt flow cytometer (Intellicyt Corp, USA). Mean Fluorescence Intensity (MFI) was calculated for each transfectant and mock transfected HEK293 with FlowJo Version 10 software (FlowJo LLC, USA). […]

CD28 [3] = biological target: T1, CD28; assay: Jurkat/IL2 + CHO/OKT3 +/- PD-L1 reporter assay: PD-L1-dependent CD28 costimulation; type: cell-based; parameters: host or cells: Jurkat cells expressing an IL-2-luciferase reporter; settings: luciferase signal
Procedure: Jurkat cells were then plated at 50 μL/well for a total of 100,000 cells per well.
To each well, 25 μL of test protein was added to the Jurkat cells. […] The Jurkat cells with test or control proteins were incubated for 15 minutes at room temperature. CHO-derived artificial antigen presenting cells (aAPC) displaying transduced cell surface anti-CD3 single chain Fv (OKT3) (i.e., no PD-L1), or OKT3 and PD-L1 (i.e., +PD-L1), were brought to 0.8×10^6 cells/mL, and 25 μL of cells were added to each well, bringing the final volume of each well to 100 μL. […] Jurkat cells and CHO cells were incubated for 5 hours at 37 degrees Celsius in a humidified 5% CO2 incubation chamber. Plates were then removed from the incubator and acclimated to room temperature for 15 minutes. 100 μL of a cell lysis and luciferase substrate solution (BioGlo luciferase reagent, Promega) were added to each well and the plates were incubated on an orbital shaker for 10 minutes. Luminescence was measured with a 1 second per well integration time using a BioTek Cytation luminometer, and a relative luminescence value (RLU) was determined for each test sample.

huPD-L1 = huPD-L1 (Homo sapiens, UniProt Q9NZQ7); assay: Flow binding to Expi293F cells transfected with PD-L1 (ECD variants); parameters: Full-length mammalian surface expression constructs for each of human CTLA-4, PD-L1, and CD28; host or cells: HEK293 cells, Expi293F transient transfection system; settings: Table E32; variant CD80 ECD-Fc selected against CD28
Procedure: To produce cells expressing cognate binding partners, full-length mammalian surface expression constructs for each of human CD28, CTLA-4 and PD-L1, were designed in pcDNA3.1 expression vector (Life Technologies) and sourced from Genscript, USA. Binding studies were carried out using the Expi293F transient transfection system (Life Technologies, USA). […] For each CD28, CTLA-4, PD-L1, or mock 30 ml transfection, 75 million Expi293F cells were incubated with 30 μg expression construct DNA and 1.5 ml diluted ExpiFectamine 293 reagent for 48 hours, at which point cells were harvested for staining.
For staining by flow cytometry, 200,000 cells of appropriate transient transfection or negative control were plated in 96-well round bottom plates. Cells were spun down and resuspended in staining buffer (PBS (phosphate buffered saline), 1% BSA (bovine serum albumin), and 0.1% sodium azide) for 20 minutes to block non-specific binding. […] Secondary antibody was washed out twice, cells were fixed in 4% formaldehyde/PBS, and samples were analyzed on FACScan flow cytometer (Becton Dickinson, USA).
Mean Fluorescence Intensity (MFI) was calculated for each transfectant and negative parental line with Cell Quest Pro software (Becton Dickinson, USA).

human pan T cells = assay: Anti-CD3 coimmobilization assay, IFN-gamma; type: cell-based; settings: Table E32; variant ECD-Fc coimmobilized with anti-CD3; culture supernatant
Procedure: Costimulatory bioactivity of CD80 fusion variants was determined in anti-CD3 coimmobilization assays. 1 nM or 4 nM mouse anti-human CD3 (OKT3, Biolegends, USA) was diluted in PBS with 1 nM to 80 nM rCD80.Fc variant proteins. This mixture was added to tissue culture treated flat bottom 96-well plates (Corning, USA) overnight to facilitate adherence of the stimulatory proteins to the wells of the plate. The next day, unbound protein was washed off the plates and 100,000 purified human pan T cells (BenTech Bio, US) or human T cell clone BC3 (Astarte Biologics, USA) were added to each well in a final volume of 200 μl of Ex-Vivo 15 media (Lonza, Switzerland). Cells were cultured 3 days before harvesting culture supernatants and measuring human IFN-gamma levels with Duoset ELISA kit (R&D Systems, USA) as described above.

allogeneic CD4+ T cells = assay: Mixed Lymphocyte Reaction (MLR), IFN-gamma; type: cell-based, human; settings: Table E32; variant ECD-Fc in MLR assay; culture supernatant
Procedure: Soluble rCD80.Fc bioactivity was tested in a human Mixed Lymphocyte Reaction (MLR). Human primary dendritic cells (DC) were generated by culturing monocytes isolated from PBMC (BenTech Bio, USA) in vitro for 7 days with 500U/ml rIL-4 (R&D Systems, USA) and 250 U/ml rGM-CSF (R&D Systems, USA) in Ex-Vivo 15 media (Lonza, Switzerland). 10,000 matured DC and 100,000 purified allogeneic CD4+ T cells (BenTech Bio, USA) were co-cultured with variant CD80 Fc fusion proteins and controls in 96 well round bottom plates in 200 μl final volume of Ex-Vivo 15 media. On day 5, IFN-gamma secretion in culture supernatants was analyzed using the Human IFN-gamma Duoset ELISA kit (R&D Systems, USA). Optical density was measured by VMax ELISA Microplate Reader (Molecular Devices, USA) and quantitated against titrated rIFN-gamma standard included in the IFN-gamma Duo-set kit (R&D Systems, USA).

huCTLA4, sequence (P16410 36-223): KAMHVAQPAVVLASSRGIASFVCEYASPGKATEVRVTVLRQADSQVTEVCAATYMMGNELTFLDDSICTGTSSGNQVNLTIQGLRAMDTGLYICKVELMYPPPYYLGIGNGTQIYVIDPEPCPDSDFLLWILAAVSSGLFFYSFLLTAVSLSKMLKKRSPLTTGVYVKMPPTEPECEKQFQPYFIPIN
huPD-L1, sequence (Q9NZQ7 19-290): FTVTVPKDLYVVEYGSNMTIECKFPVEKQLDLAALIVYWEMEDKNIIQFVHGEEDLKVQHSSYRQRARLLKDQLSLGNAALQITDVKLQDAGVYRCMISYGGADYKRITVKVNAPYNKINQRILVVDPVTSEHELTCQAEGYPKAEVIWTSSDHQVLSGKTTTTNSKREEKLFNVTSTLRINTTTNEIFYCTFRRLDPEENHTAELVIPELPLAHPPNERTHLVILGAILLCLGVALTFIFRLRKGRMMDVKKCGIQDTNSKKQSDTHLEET

CTLA4 MFI at 66.6 nM (huCTLA4)	CD28 costimulation, Combination of FcR and/or PD-L1 Dependent Cross-Linking, 0.6 nM (CD28 [1]; K562/0KT3/PD-L1 aAPC, 0.6 nM)	CD28 costimulation, Combination of FcR and/or PD-L1 Dependent Cross-Linking, 50 nM (CD28 [1]; K562/0KT3/PD-L1 aAPC, 50 nM)	CD28 costimulation, FcR Dependent Cross-Linking (No PD-L1), 0.6 nM (CD28 [1]; K562/0KT3 aAPC, 0.6 nM)	CD28 costimulation, FcR Dependent Cross-Linking (No PD-L1), 50 nM (CD28 [1]; K562/0KT3 aAPC, 50 nM)	CD28 costimulation, FcR Dependent Cross-Linking (No PD-L1), […] (CD28 [1]; K562/0KT3 aAPC, […])	CD28 MFI at 66.6 nM (CD28 [2])	PD-L1-Dependent CD28 Costimulation, +PD-L1, 0.6 nM (CD28 [3]; CHO/OKT3/PD-L1 aAPC, 0.6 nM)	PD-L1-Dependent CD28 Costimulation, +PD-L1, 50 nM (CD28 [3]; CHO/OKT3/PD-L1 aAPC, 50 nM)	PD-L1-Dependent CD28 Costimulation, No PD-L1, 50 nM (CD28 [3]; CHO/OKT3 aAPC, no PD-L1, 50 nM)	PD-L1-Dependent CD28 Costimulation, No PD-L1, […] (CD28 [3]; CHO/OKT3 aAPC, no PD-L1, […])	Binding PD-L1 MFI (huPD-L1)	Substance	Coimmobilization with anti CD3 IFN-gamma (human pan T cells) [pg/mL]	MLR IFN-gamma levels (allogeneic CD4+ T cells) [pg/mL]
5962	689	679	1404	1373	1390	2592	501	440	395	419		Fc only: negative control Fc alone [reference compound]		
											70	WT CD80	83	866
